Measurements published in the PETadex activity labels (doi:10.1016/j.bbagen.2004.12.016).

B1: unnamed (protein)
chain: MKQFSAKHALAVVVTAGHALAASTQGISEDLYTRLVEMATISQAAYADLCNIPSTIIKGEKIYNSQTDINGWILRDDSSKEIITVFRGTGSDTNLQLDTNYTLTPFDTLPQCNGCEVHGGYYIGWVSVQDQVESLVKQQVSQYPDYALTVTGHSLGASLAALTAAQLSATYDNIRLYTFGEPRSGNQAFASYMNDAFQASSPDTTQYFRVTHANDGIPNLPPVEQGYAHGGVEYWSVDPYSAQNTFVCTGDEVQCCEAQGGQGVNNAHTTYFGMTSGACTW
B2: unnamed (protein)
chain: MKQFSAKHALAVVVTAGHALAASTQGISEDLYTRLVEMATISQAAYADLCNIPSTIIKGEKIYNSQTDINGWILRDDSSKEIITVFRGTGSDTNLQLITNYTLTPFDTLPQCNGCEVHGGYYIGWVSVQDQVESLVKQQVSQYPDYALTVTGHSLGASLAALTAAQLSATYDNIRLYTFGEPRSGNQAFASYMNDAFQASSPDTTQYFRVTHANDGIPNLPPVEQGYAHGGVEYWSVDPYSAQNTFVCTGDEVQCCEAQGGQGVNNAHTTYFGMTSGACTW
B3: unnamed (protein)
chain: MKQFSAKHALAVVVTAGHALAASTQGISEDLYTRLVEMATISQAAYADLCNIPSTIIKGEKIYNSQTDINGWILRDDSSKEIITVFRGTGSDRNLQLDTNYTLTPFDTLPQCNGCEVHGGYYIGWVSVQDQVESLVKQQVSQYPDYALTVTGHSLGASLAALTAAQLSATYDNIRLYTFGEPRSGNQAFASYMNDAFQASSPDTTQYFRVTHANDGIPNLPPVEQGYAHGGVEYWSVDPYSAQNTFVCTGDEVQCCEAQGGQGVNNAHTTYFGMTSGACTW
B4: unnamed (protein)
chain: MKQFSAKHALAVVVTAGHALAASTQGISEDLYTRLVEMATISQAAYADLCNIPSTIIKGEKIYNSQTDINGWILRDDSSKEIITVFRGTGSDTNLQLDTNFTLTPFDTLPQCNGCEVHGGYYIGWVSVQDQVESLVKQQVSQYPDYALTVTGHSLGASLAALTAAQLSATYDNIRLYTFGEPRSGNQAFASYMNDAFQASSPDTTQYFRVTHANDGIPNLPPVEQGYAHGGVEYWSVDPYSAQNTFVCTGDEVQCCEAQGGQGVNNAHTTYFGMTSGACTW
B5: unnamed (protein)
chain: MKQFSAKHALAVVVTAGHALAASTQGISEDLYTRLVEMATISQAAYADLCNIPSTIIKGEKIYNSQTDINGWILRDDSSKEIITVFRGTGSITNLQLDTNYTLTPFDTLPQCNGCEVHGGYYIGWVSVQDQVESLVKQQVSQYPDYALTVTGHSLGASLAALTAAQLSATYDNIRLYTFGEPRSGNQAFASYMNDAFQASSPDTTQYFRVTHANDGIPNLPPVEQGYAHGGVEYWSVDPYSAQNTFVCTGDEVQCCEAQGGQGVNNAHTTYFGMTSGACTW
B6: unnamed (protein)
chain: MKQFSAKHALAVVVTAGHALAASTQGISEDLYTRLVEMATISQAAYADLCNIPSTIIKGEKIYNSQTDINGWILRDDSSKEIITVFRGTGSDTNLQLNTNYTLTPFDTLPQCNGCEVHGGYYIGWVSVQDQVESLVKQQVSQYPDYALTVTGHSLGASLAALTAAQLSATYDNIRLYTFGEPRSGNQAFASYMNDAFQASSPDTTQYFRVTHANDGIPNLPPVEQGYAHGGVEYWSVDPYSAQNTFVCTGDEVQCCEAQGGQGVNNAHTTYFGMTSGACTW

substrate: 2-(1-Naphthyl)butanoic acid; conditions: pH 5; 37 °C

Protein	Km [µM]	kcat [s⁻¹]	kcat/Km [M⁻¹ s⁻¹]
B1	330	2.33	7060
B3	630	3.77	5980
B5	290	2.7	9310

substrate: alpha-Naphthyl caprylate; conditions: pH 5; 37 °C

Protein	Km [µM]	kcat [s⁻¹]	kcat/Km [M⁻¹ s⁻¹]
B1	79	0.85	10800
B3	17	0.32	18800
B4	20	1.09	54500
B5	50	0.64	12800

substrate: 2-(1-Naphthyl)butanoic acid; conditions: pH 7.5; 37 °C

Protein	Km [µM]	kcat [s⁻¹]	kcat/Km [M⁻¹ s⁻¹]
B2	150	3.72	24800

same assay, conditions: pH 6; 37 °C

Protein	Km [µM]	kcat [s⁻¹]	kcat/Km [M⁻¹ s⁻¹]
B4	630	3.38	5370

same assay, conditions: pH 7; 37 °C

Protein	Km [µM]	kcat [s⁻¹]	kcat/Km [M⁻¹ s⁻¹]
B6	180	32.1	178000
